Test [1] in a line: SPR membrane binding to POPC/POPS/PI(3,4)P2 vesicles. To be noted: POPC/POPS/PI(3,4)P2 (77:20:3), 1 μM Smad2. As for the experimental part:
(§1) Figure 1 Membrane-binding properties of Smad2 FL protein and MH2 domain determined by SPR analysis.A, PtdInsP selectivity of Smad2-FL determined using POPC/POPS/PtdInsP (77:20:3 in mole ratio) LUVs coated on the L1 sensor chip. The protein concentration was 100 nM. PIP3 indicates PI(3,4,5)P3. B, determination of Kd for binding of Smad2 FL to different LUVs. The protein concentration was varied from 0 to 500 nM. C, PI(4,5)P2 concentration dependence of membrane binding of Smad2-FL determined using POPC/POPS/PI(4,5)P2 (77-x:20:x, x = 0–5 mol%) LUVs. The protein concentration was 100 nM. D, PtdInsP selectivity of the Smad2 MH2 domain determined using POPC/POPS/PtdInsP (77:20:3 in mole ratio) LUVs. […] RUmax values determined for different vesicles at 1 μM Smad2 were: 280 ± 20 for POPC/POPS/PI(4,5)P2 (77:20:3), 370 ± 10 for POPC/POPS/PI(3,4)P2 (77:20:3), 400 ± 15 for POPC/POPS/PI(3,4,5)P3 (or PIP3) (77:20:3), 400 ± 20 for POPC/POPS/PI(3)P (77:20:3), and 380 ± 20 for POPC/POPS (80:20). […]
(§2) All SPR measurements were performed at 23 °C in 20 mM Tris, pH 7.4, containing 0.16 M NaCl using a lipid-coated L1 chip in the BIACORE X-100 system (GE Healthcare) as described previously ([19], [38]). […] Sensorgrams were collected for both membrane association and dissociation but the only the association phases were further analyzed because the dissociation phases were often too slow for analysis. […]

The nature of test [2]: SPR membrane binding to POPC/POPS/PI(3,4,5)P3 vesicles. Particulars: POPC/POPS/PI(3,4,5)P3 (or PIP3) (77:20:3), 1 μM Smad2. How it is done: as §1, §2

B1: Smad2 WT: bacterially expressed full-length Smad2 wild-type (protein)
chain: MSSILPFTPPVVKRLLGWKKSAGGSGGAGGGEQNGQEEKWCEKAVKSLVKKLKKTGRLDELEKAITTQNCNTKCVTIPSTCSEIWGLSTANTVDQWDTTGLYSFSEQTRSLDGRLQVSHRKGLPHVIYCRLWRWPDLHSHHELKAIENCEYAFNLKKDEVCVNPYHYQRVETPVLPPVLVPRHTEILTELPPLDDYTHSIPENTNFPAGIEPQSNYIPETPPPGYISEDGETSDQQLNQSMDTGSPAELSPTTLSPVNHSLDLQPVTYSEPAFWCSIAYYELNQRVGETFHASQPSLTVDGFTDPSNSERFCLGLLSNVNRNATVEMTRRHIGRGVRLYYIGGEVFAECLSDSAIFVQSPNCNQRYGWHPATVCKIPPGCNLKIFNNQEFAALLAQSVNQGFEAVYQLTRMCTIRMSFVKGWGAEYRRQTVTSTPCWIELHLNGPLQWLDKVLTQMGSPSVRCSSMS
modifications: left off: His6, N-terminal, state not stated
notes: bacterially expressed full-length Smad2 wild-type
As to B1, the RUmax is 370 ± 10 in test [1] and 400 ± 15 in test [2].

These data come from paper PMC8567202, “Phosphoinositide-binding activity of Smad2 is essential for its function in TGF-β signaling” (The Journal of Biological Chemistry, 2021).
